Assay results taken from the supplement of paper PMC9112550, “Optimization of the antimicrobial peptide Bac7 by deep mutational scanning” (BMC Biology, 2022).

Tested on: Escherichia coli TOP10
Test: shrunken log2 fold change of peptide-encoding DNA abundance (4.5 h post-induction vs induction); higher = less antimicrobial activity (less host growth inhibition)
Details: time post-induction: 4.5 h; library: site-saturation at positions 5, 18, 19, 20
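Note: peptides expressed intracellularly from a pBAD plasmid library in pooled LB shake-flask culture, induced with 0.3% L-arabinose, DNA abundance read by NGS, three biological replicates, DESeq2 with apeglm shrinkage.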

Sequence | shrunken log2 fold change
RRIRARPPRLPRPRPRPFDFPRP | 0.00925
RRIRPRPPRLPRPRPRPQKDPRP | -0.132
RRIRNRPPRLPRPRPRPELHPRP | 0.102
RRIRARPPRLPRPRPRPIPYPRP | -0.0777
RRIRCRPPRLPRPRPRPLFHPRP | -0.429
RRIRERPPRLPRPRPRPIFDPRP | -0.349
RRIRKRPPRLPRPRPRPIKEPRP | -0.0178
RRIRHRPPRLPRPRPRPWYQPRP | 0.0124
RRIRQRPPRLPRPRPRPMHTPRP | -0.026
RRIRFRPPRLPRPRPRPEIIPRP | -0.0938
RRIRHRPPRLPRPRPRPFTHPRP | -0.0608
RRIRVRPPRLPRPRPRPIQFPRP | -0.0307
RRIRWRPPRLPRPRPRPQTEPRP | 0.0468
RRIRIRPPRLPRPRPRPMDDPRP | 0.0135
RRIRQRPPRLPRPRPRPEVCPRP | 0.134
RRIRCRPPRLPRPRPRPTTQPRP | 0.0242
RRIRNRPPRLPRPRPRPSCFPRP | -0.398
RRIRWRPPRLPRPRPRPIYLPRP | -0.674
RRIRWRPPRLPRPRPRPLLKPRP | -0.0261
RRIRTRPPRLPRPRPRPSWYPRP | -1.12
RRIRGRPPRLPRPRPRPCLWPRP | 0.426
RRIRIRPPRLPRPRPRPTRWPRP | 0.242
RRIRLRPPRLPRPRPRPENIPRP | -0.519
RRIRDRPPRLPRPRPRPRMHPRP | -0.268
RRIRIRPPRLPRPRPRPVWWPRP | 0.0779

Sequence | shrunken log2 fold change
RRIRVRPPRLPRPRPRPMFEPRP | 0.0774
RRIRTRPPRLPRPRPRPRLFPRP | 0.207
RRIRTRPPRLPRPRPRPCKKPRP | -0.0502
RRIRDRPPRLPRPRPRPGRTPRP | -0.0421
RRIRKRPPRLPRPRPRPAKNPRP | 0.487
RRIRVRPPRLPRPRPRPYRYPRP | -0.228
RRIRDRPPRLPRPRPRPYIQPRP | -0.161
RRIRVRPPRLPRPRPRPACAPRP | 0.322
RRIRPRPPRLPRPRPRPCFIPRP | -0.735
RRIRTRPPRLPRPRPRPLTHPRP | -0.0616
RRIRNRPPRLPRPRPRPELMPRP | 0.232
RRIRYRPPRLPRPRPRPNSKPRP | -0.875
RRIRFRPPRLPRPRPRPNTWPRP | -0.277
RRIRHRPPRLPRPRPRPKVDPRP | -0.0132
RRIRSRPPRLPRPRPRPEQSPRP | 0.22
RRIRTRPPRLPRPRPRPKCEPRP | 0.118
RRIRQRPPRLPRPRPRPTGWPRP | 0.19
RRIRERPPRLPRPRPRPVDHPRP | -0.195
RRIRQRPPRLPRPRPRPRPWPRP | 0.858
RRIRKRPPRLPRPRPRPADRPRP | 0.102
RRIRDRPPRLPRPRPRPQTDPRP | -0.0328
RRIRKRPPRLPRPRPRPDTWPRP | 0.35
RRIRWRPPRLPRPRPRPYTDPRP | 0.102
RRIRFRPPRLPRPRPRPNEKPRP | 0.0854
RRIRGRPPRLPRPRPRPNPDPRP | 0.221

Sequence | shrunken log2 fold change
RRIRQRPPRLPRPRPRPLNRPRP | -0.191
RRIRWRPPRLPRPRPRPAMQPRP | 0.298
RRIRSRPPRLPRPRPRPDERPRP | 0.1
RRIRARPPRLPRPRPRPCIAPRP | -0.0146
RRIRGRPPRLPRPRPRPMRFPRP | 0.112
RRIRERPPRLPRPRPRPELSPRP | 0.314
RRIRKRPPRLPRPRPRPGIVPRP | 0.0403
RRIRFRPPRLPRPRPRPAHLPRP | -0.0824
RRIRHRPPRLPRPRPRPPWHPRP | -0.0707
RRIRMRPPRLPRPRPRPNPEPRP | 0.406
RRIRARPPRLPRPRPRPSKTPRP | 0.314
RRIRDRPPRLPRPRPRPRTIPRP | -0.018
RRIRERPPRLPRPRPRPYLAPRP | -0.225
RRIRIRPPRLPRPRPRPFIEPRP | -0.848
RRIRSRPPRLPRPRPRPDKLPRP | -0.266
RRIRARPPRLPRPRPRPIISPRP | -0.129
RRIRVRPPRLPRPRPRPKTKPRP | 0.0179
RRIRFRPPRLPRPRPRPKMYPRP | -0.815
RRIRRRPPRLPRPRPRPVYRPRP | -0.235
RRIRKRPPRLPRPRPRPQFFPRP | -0.493
RRIRVRPPRLPRPRPRPYVKPRP | -0.354
RRIRRRPPRLPRPRPRPYAGPRP | -0.137
RRIRCRPPRLPRPRPRPAEVPRP | -0.106
RRIRERPPRLPRPRPRPIREPRP | 0.0256
RRIRSRPPRLPRPRPRPMRGPRP | 0.944

Sequence | shrunken log2 fold change
RRIRPRPPRLPRPRPRPQKLPRP | -0.0225
RRIRSRPPRLPRPRPRPNMMPRP | -0.166
RRIRFRPPRLPRPRPRPTMMPRP | -0.0556
RRIRFRPPRLPRPRPRPWPAPRP | -0.0371
RRIRERPPRLPRPRPRPRNMPRP | -0.228
RRIRWRPPRLPRPRPRPTFVPRP | -0.183
RRIRMRPPRLPRPRPRPIINPRP | -0.0492
RRIRCRPPRLPRPRPRPMCFPRP | 0.00335
RRIRYRPPRLPRPRPRPKQFPRP | -0.155
RRIRRRPPRLPRPRPRPGKMPRP | 0.0473
RRIRWRPPRLPRPRPRPDKCPRP | -0.134
RRIRGRPPRLPRPRPRPNHVPRP | 0.425
RRIRQRPPRLPRPRPRPWCTPRP | -0.244
RRIRTRPPRLPRPRPRPNKFPRP | -0.37
RRIRARPPRLPRPRPRPWHMPRP | -0.361
RRIRWRPPRLPRPRPRPGFRPRP | 0.221
RRIRERPPRLPRPRPRPQSYPRP | -0.0192
RRIRVRPPRLPRPRPRPHHEPRP | -0.582
RRIRVRPPRLPRPRPRPLLDPRP | 0.157
RRIRLRPPRLPRPRPRPYQRPRP | -0.393
RRIRRRPPRLPRPRPRPKSHPRP | -0.172
RRIRRRPPRLPRPRPRPFYWPRP | -0.34
RRIRARPPRLPRPRPRPTDHPRP | 0.0934
RRIRDRPPRLPRPRPRPSPCPRP | -0.0819
RRIRYRPPRLPRPRPRPSNTPRP | -1.06

Sequence | shrunken log2 fold change
RRIRPRPPRLPRPRPRPFATPRP | 0.0676
RRIRMRPPRLPRPRPRPEYSPRP | 0.0257
RRIRNRPPRLPRPRPRPYKWPRP | -0.233
RRIRQRPPRLPRPRPRPHSQPRP | 0.0419
RRIRFRPPRLPRPRPRPIKEPRP | -0.113
RRIRYRPPRLPRPRPRPTVKPRP | -0.428
RRIRHRPPRLPRPRPRPFWTPRP | -0.766
RRIRLRPPRLPRPRPRPARLPRP | 0.647
RRIRCRPPRLPRPRPRPHWTPRP | -0.226
RRIRWRPPRLPRPRPRPICNPRP | -0.0133
RRIRWRPPRLPRPRPRPEYIPRP | -0.0519
RRIRERPPRLPRPRPRPLEFPRP | -0.542
RRIRCRPPRLPRPRPRPATMPRP | -0.0924
RRIRNRPPRLPRPRPRPECYPRP | -0.329
RRIRIRPPRLPRPRPRPLPIPRP | -0.0341
RRIRVRPPRLPRPRPRPWESPRP | 0.0528
RRIRYRPPRLPRPRPRPADPPRP | 0.035
RRIRDRPPRLPRPRPRPEVQPRP | 0.988
RRIRSRPPRLPRPRPRPQMVPRP | -0.102
RRIRTRPPRLPRPRPRPAWWPRP | 0.615
RRIRKRPPRLPRPRPRPNTQPRP | -0.0781
RRIRARPPRLPRPRPRPQSTPRP | 0.0836
RRIRIRPPRLPRPRPRPKDGPRP | -0.105
RRIRQRPPRLPRPRPRPFGSPRP | -0.156
RRIRERPPRLPRPRPRPVCSPRP | -0.239
